Results on 50 sequences are retold here after the supplement of paper PMC9112550, “Optimization of the antimicrobial peptide Bac7 by deep mutational scanning” (BMC Biology, 2022).
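Further: peptides expressed intracellularly from a pBAD plasmid library in pooled LB shake-flask culture, induced with 0.3% L-arabinose, DNA abundance read by NGS, three biological replicates, DESeq2 with apeglm shrinkage.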

The series deals with Escherichia coli TOP10. The series is described as follows: shrunken log2 fold change of peptide-encoding DNA abundance (4.5 h post-induction vs induction); higher = less antimicrobial activity (less host growth inhibition). The conditions noted are these: time post-induction: 4.5 h; library: site-saturation at positions 5, 18, 19, 20.
In the case of RRIRGRPPRLPRPRPRPEMEPRP, the “shrunken log2 fold change” value was -0.0341.
The figure for RRIRVRPPRLPRPRPRPVQRPRP is 0.167.
Take RRIRWRPPRLPRPRPRPVNSPRP: the “shrunken log2 fold change” value was 0.0541.
In the case of RRIRGRPPRLPRPRPRPPMKPRP it was 0.138.
As for RRIRCRPPRLPRPRPRPVFSPRP, the “shrunken log2 fold change” value is -0.385.
With RRIRARPPRLPRPRPRPFIDPRP, the “shrunken log2 fold change” value was -0.554.
In the case of RRIRNRPPRLPRPRPRPLAVPRP, the “shrunken log2 fold change” value turned out to be 0.0686.
RRIRTRPPRLPRPRPRPLKLPRP: the “shrunken log2 fold change” value was -0.251.
Turning to RRIRHRPPRLPRPRPRPIQLPRP, the “shrunken log2 fold change” value turned out to be 0.128.
Consider RRIRRRPPRLPRPRPRPQYHPRP, for which the “shrunken log2 fold change” value is -0.145.
In the case of RRIRMRPPRLPRPRPRPVKTPRP, the “shrunken log2 fold change” value came to 0.0113.
Consider RRIRPRPPRLPRPRPRPGAIPRP, for which the “shrunken log2 fold change” value was found to be 0.0588.
Consider RRIRWRPPRLPRPRPRPNINPRP, for which the “shrunken log2 fold change” value is -0.429.
On to RRIRPRPPRLPRPRPRPILEPRP, for which the “shrunken log2 fold change” value was -0.132.
For RRIRHRPPRLPRPRPRPNWQPRP, the “shrunken log2 fold change” value is -0.0282.
On to RRIRHRPPRLPRPRPRPGFCPRP, for which the “shrunken log2 fold change” value was -0.0484.
As to RRIRWRPPRLPRPRPRPHCIPRP, the “shrunken log2 fold change” value was -0.207.
As for RRIRSRPPRLPRPRPRPAPPPRP, the “shrunken log2 fold change” value came out at 0.458.
Turning to RRIRGRPPRLPRPRPRPRTYPRP, the “shrunken log2 fold change” value worked out at 0.0193.
For the sequence RRIRFRPPRLPRPRPRPQMCPRP, the “shrunken log2 fold change” value is -0.119.
Regarding RRIRTRPPRLPRPRPRPPPYPRP, the “shrunken log2 fold change” value was -0.000222.
In the case of RRIRGRPPRLPRPRPRPHTCPRP it was 0.104; in that of RRIRNRPPRLPRPRPRPNTMPRP, 0.402; in that of RRIRCRPPRLPRPRPRPQMQPRP, -0.347.
RRIRWRPPRLPRPRPRPWSTPRP: the “shrunken log2 fold change” value was 0.374.
Consider RRIRLRPPRLPRPRPRPCDRPRP, for which the “shrunken log2 fold change” value is -0.114.
Consider RRIRERPPRLPRPRPRPYPQPRP, for which the “shrunken log2 fold change” value was -0.898.
As for RRIRSRPPRLPRPRPRPTQDPRP, the “shrunken log2 fold change” value was determined as 0.445.
In the case of RRIRLRPPRLPRPRPRPVKLPRP it was -0.473; in that of RRIRMRPPRLPRPRPRPIQQPRP, -0.0206; in that of RRIRGRPPRLPRPRPRPRKAPRP, 0.693.
The figure for RRIRKRPPRLPRPRPRPELWPRP is 1.42.
With RRIRNRPPRLPRPRPRPKPQPRP, the “shrunken log2 fold change” value is 0.41.
With RRIRGRPPRLPRPRPRPMQEPRP, the “shrunken log2 fold change” value was determined as 0.161.
On to RRIRMRPPRLPRPRPRPQSSPRP, for which the “shrunken log2 fold change” value is -0.0185.
RRIRCRPPRLPRPRPRPRAIPRP: the “shrunken log2 fold change” value came out at 0.0982.
RRIRSRPPRLPRPRPRPPWLPRP: the “shrunken log2 fold change” value stood at 0.462.
On to RRIRVRPPRLPRPRPRPLKEPRP, for which the “shrunken log2 fold change” value amounted to 0.0279.
RRIRYRPPRLPRPRPRPQPEPRP: the “shrunken log2 fold change” value is 0.239.
For RRIRERPPRLPRPRPRPTDLPRP, the “shrunken log2 fold change” value came to 0.15.
For the sequence RRIRHRPPRLPRPRPRPYQFPRP, the “shrunken log2 fold change” value was -0.0129.
Consider RRIRFRPPRLPRPRPRPCVHPRP, for which the “shrunken log2 fold change” value stood at 0.00355.
The figure for RRIRIRPPRLPRPRPRPADLPRP is 0.0446; for RRIRSRPPRLPRPRPRPCAKPRP it is 0.0351.
In the case of RRIRYRPPRLPRPRPRPPPCPRP it was 0.574.
As to RRIRQRPPRLPRPRPRPFWEPRP, the “shrunken log2 fold change” value was -0.0669.
Turning to RRIRWRPPRLPRPRPRPSCHPRP, the “shrunken log2 fold change” value is -0.066.
Turning to RRIRNRPPRLPRPRPRPMWPPRP, the “shrunken log2 fold change” value was -0.00481.
The figure for RRIRMRPPRLPRPRPRPVALPRP is 0.711.
In the case of RRIRYRPPRLPRPRPRPVDLPRP it was 0.0483.
